Drawing on the RNAGym collection of RNA variant scans (doi:10.7554/elife.90254), this text covers self-cleavage for 167 variants.

B1: OR4K15 (parent)
chain: GUUAACGGUCAUAGGCCAUGGAAACUAGGAGCACCAUUUCGCUGCCAGUGAAGAAAUGAACAAAGAAAAUCUGGGCCAGGCAGGCAUCAAAAGAAAUAGUCUUGCGCUCAACCAGAAAGUCUGUAAUCAUUUUAAGGGUA

This data set covers variants of B1. The data set is described as follows: self-cleavage, relative activity (ratio to wild type); higher = more cleavage; in vitro, sequencing; the parent is a self-cleaving ribozyme.
A5U A62C: the self-cleavage was 1.64.

As to U120C U130C, the self-cleavage was 0.3.

A63G A135U: the self-cleavage was determined as 0.04.

A11G A60G: the self-cleavage amounted to 0.86.

On to A24G A92U, for which the self-cleavage was 1.45.

On to A24U U108A, for which the self-cleavage is 0.07.

Consider C46U A47G, for which the self-cleavage amounted to 0.79.

On to A24G U72C, for which the self-cleavage stood at 0.27.

As to U9C A118U, the self-cleavage amounted to 0.88.

On to U9C A118G, for which the self-cleavage stood at 1.32.

As for A78U A129G, the self-cleavage stood at 0.18.

As for A5G A18G, the self-cleavage was 0.8.

As to U39C A110G, the self-cleavage stood at 0.14.

In the case of A27U U38C, the self-cleavage was 1.83.

Regarding U57A A63U, the self-cleavage worked out at 1.38.

As to G44U A110G, the self-cleavage amounted to 0.18.

As for A89G C107U, the self-cleavage was determined as 0.

Consider A36G A62C, for which the self-cleavage amounted to 1.51.

Regarding A54G C112U, the self-cleavage worked out at 0.03.

Regarding A64C G75C, the self-cleavage was 0.21.

In the case of A110G U120C, the self-cleavage stood at 0.06.

For A64G U103C, the self-cleavage was 1.2.

Consider A11U A47U, for which the self-cleavage is 0.96.

On to C32A G73U, for which the self-cleavage stood at 0.21.

Regarding A68G G83A, the self-cleavage is 1.73.

For U26C U49C, the self-cleavage came to 1.41.

With G58A A118G, the self-cleavage worked out at 0.52.

As for C34A A51G, the self-cleavage is 1.27.

For A22G U72C, the self-cleavage was 0.33.

As for G7A U127C, the self-cleavage is 1.29.

On to G58U A67G, for which the self-cleavage was found to be 0.88.

Consider U49A U103G, for which the self-cleavage was 0.01.

Regarding A78U C128A, the self-cleavage amounted to 0.04.

For the variant A89C A91G, the self-cleavage amounted to 0.72.

Take U132C: the self-cleavage is 1.05.

As to A4G C35A, the self-cleavage was found to be 1.14.

With C61U G136A, the self-cleavage worked out at 2.1.

As for A56G G136A, the self-cleavage turned out to be 1.69.

For A18U U70C, the self-cleavage was found to be 1.04.

Take U43A A64G: the self-cleavage was 1.49.

Take A11U U139C: the self-cleavage is 1.23.

Regarding C32U U87C, the self-cleavage was 1.36.

As to U131C, the self-cleavage turned out to be 0.71.

On to U131A, for which the self-cleavage stood at 1.05.

For the variant A98U A118G, the self-cleavage came to 1.83.

In the case of G74A C128U, the self-cleavage worked out at 0.13.

Regarding A52U U87A, the self-cleavage came out at 1.78.

As for A91G G138A, the self-cleavage was determined as 0.95.

With A27U G79U, the self-cleavage was found to be 0.09.

Turning to A129G G137U, the self-cleavage was 1.7.

For A11U A63U, the self-cleavage was found to be 1.56.

For the variant A24C G104A, the self-cleavage came to 0.01.

In the case of A63G A110G, the self-cleavage was found to be 0.15.

A24C U127C: the self-cleavage worked out at 1.03.

On to U87A A96U, for which the self-cleavage worked out at 1.68.

Consider A13G U72C, for which the self-cleavage came to 0.54.

For the variant A30G U37C, the self-cleavage was determined as 0.98.

As to U3A U139A, the self-cleavage was 1.89.

With A23G A92C, the self-cleavage was determined as 1.29.

As for C32A G79A, the self-cleavage amounted to 0.17.

For U49A U100C, the self-cleavage was 2.15.

In the case of G15A, the self-cleavage amounted to 0.92.

Turning to U43C A117G, the self-cleavage came to 1.75.

G48U A114U: the self-cleavage amounted to 0.09.

As to A52C A66G, the self-cleavage was determined as 1.59.

As for A55G A56G, the self-cleavage is 1.31.

Turning to U100C, the self-cleavage turned out to be 2.09.

For A69G A118U, the self-cleavage was 0.56.

As for A64G A129G, the self-cleavage was 1.14.

Turning to G106A U130C, the self-cleavage was 0.01.

Turning to G31U A82U, the self-cleavage came to 0.27.

Turning to A68G U132C, the self-cleavage is 1.38.

As for U72C U97C, the self-cleavage turned out to be 0.1.

In the case of A95G U139G, the self-cleavage was found to be 2.68.

A95G U139A: the self-cleavage is 2.01.

A51U G58A: the self-cleavage stood at 1.56.

Consider A68U U103A, for which the self-cleavage was 0.3.

For A59G A95G, the self-cleavage stood at 1.68.

Turning to A5G U70A, the self-cleavage was determined as 0.75.

On to G58U G106A, for which the self-cleavage is 0.01.

For the variant A23G A52G, the self-cleavage is 1.13.

For the variant A96G A98G, the self-cleavage is 0.91.

Turning to A66G U120A, the self-cleavage amounted to 1.73.

For the variant U102C A116G, the self-cleavage is 0.7.

Consider C32U A89G, for which the self-cleavage was found to be 0.89.

For the variant A51G A59G, the self-cleavage is 0.89.

For C107G A118G, the self-cleavage was determined as 0.01.

On to A69U A78G, for which the self-cleavage came to 0.32.

Take U70C U120A: the self-cleavage stood at 0.8.

For the variant U37A A118G, the self-cleavage was 1.4.

For the variant A55G U122A, the self-cleavage was 1.39.

In the case of A23G A91U, the self-cleavage came out at 1.57.

Turning to A92G A94G, the self-cleavage worked out at 1.49.

In the case of A47G G106A, the self-cleavage was determined as 0.

Turning to U127A A129G, the self-cleavage stood at 2.49.

Consider A82G A111C, for which the self-cleavage stood at 0.01.

Regarding U9C U102C, the self-cleavage came out at 2.15.

Turning to U57C A89G, the self-cleavage was 0.75.

With A5G A63U, the self-cleavage was determined as 1.35.

For the variant A51U U122A, the self-cleavage worked out at 0.74.

Take U102G: the self-cleavage is 0.58.

Regarding A33U A94U, the self-cleavage was 2.41.

Turning to A52C A114G, the self-cleavage was 0.25.

With U57G U100C, the self-cleavage was determined as 2.26.

Turning to A5C A59U, the self-cleavage is 1.73.

In the case of G15A U19C, the self-cleavage came out at 0.

Consider A55G A67G, for which the self-cleavage was found to be 1.21.

Take A55G A67U: the self-cleavage stood at 1.53.

With G31A A56G, the self-cleavage came to 1.41.

As for A92G A98G, the self-cleavage stood at 0.74.

As to G41C A52G, the self-cleavage is 1.59.

Take U26C A64G: the self-cleavage was determined as 0.74.

For A62U U139A, the self-cleavage was found to be 1.78.

Regarding U100A U131C, the self-cleavage turned out to be 0.36.

Turning to U87C C105U, the self-cleavage came to 0.13.

G28A U102C: the self-cleavage is 0.81.

With A78G U127A, the self-cleavage came to 0.31.

Turning to A82G U124C, the self-cleavage turned out to be 0.27.

As for A13G U43C, the self-cleavage turned out to be 0.98.

As to U122C A129G, the self-cleavage is 0.46.

Regarding U2A A24C, the self-cleavage was 0.96.

Regarding C35U A56G, the self-cleavage was 1.13.

Regarding A92C U132C, the self-cleavage was 1.05.

On to G31A U39C, for which the self-cleavage came to 1.68.

Consider A47G A56G, for which the self-cleavage amounted to 1.03.

In the case of A36U A95U, the self-cleavage is 1.37.

Turning to G7U A13G, the self-cleavage was 1.41.

Turning to A11G A54U, the self-cleavage was 1.09.

Regarding G1A A90G, the self-cleavage stood at 0.26.

Take A33U U37C: the self-cleavage was determined as 1.51.

For the variant A62G U100C, the self-cleavage was found to be 2.17.

As to A51G A60U, the self-cleavage is 1.68.

With U3C A51U, the self-cleavage is 1.27.

Take A63G A94U: the self-cleavage was found to be 0.98.

Consider A56G A91G, for which the self-cleavage came out at 0.51.

Take A82G U130C: the self-cleavage stood at 0.14.

U49C G50U: the self-cleavage was found to be 2.22.

Turning to A47C A60G, the self-cleavage worked out at 1.63.

With A24G G104A, the self-cleavage worked out at 0.04.

With A51U U108C, the self-cleavage was 0.02.

For A60G A126G, the self-cleavage was 0.27.

Regarding A5G A60G, the self-cleavage is 1.08.

Consider A11U U37C, for which the self-cleavage came to 1.01.

Take A5U A56U: the self-cleavage came out at 1.15.

On to G58A A116G, for which the self-cleavage came to 0.29.

As for A5G A116G, the self-cleavage came to 0.47.

Regarding A47G A86C, the self-cleavage worked out at 1.04.

With C25U A118G, the self-cleavage stood at 0.68.

For the variant A51C A82G, the self-cleavage was found to be 0.67.

A22G A47G: the self-cleavage came out at 1.34.

As to U2C U49A, the self-cleavage turned out to be 1.5.

Take A96G C113G: the self-cleavage is 0.02.

For the variant A23G C40U, the self-cleavage was determined as 1.37.

C71U A114U: the self-cleavage is 0.06.

In the case of A69U U130C, the self-cleavage was determined as 0.9.

As to A90U A134G, the self-cleavage was found to be 1.26.

Regarding A4G U49A, the self-cleavage is 0.8.

U97G: the self-cleavage is 1.77.

Take G44A G65A: the self-cleavage turned out to be 0.

As for A5G A82U, the self-cleavage came to 0.41.

With A5U U26C, the self-cleavage was 0.57.

A91G C105G: the self-cleavage worked out at 0.01.

For the variant U108C A114G, the self-cleavage was 0.01.

Regarding A23G A68G, the self-cleavage is 1.29.

As for A24U A52G, the self-cleavage stood at 1.32.

As to A94G U103A, the self-cleavage stood at 0.39.

In the case of C34U A126G, the self-cleavage is 1.12.
